Data reported in paper PMC7891125 (Cell, 2021).

B1: mAb 75 (IgG) (antibody, V domains shown)
VH: QVQLVESGGGVVQPGRSLRLSCAASGFTFNNYPLHWVRQAPGKGPEWVAVISQDGGNKYYVDSVKGRFTISRDNSKNTLYLQMNNLRAEDTALYYCARDVVVVVAARNHYYNGMDVWGQGTTVTVSS
VL: DIQLTQSPSSVSASVGDRVTITCRASQGISSWLAWYQQKPGKAPKLLIYAVSSLQSGVPSRFSGSGSGTDFTLTISSLQPEDFATYYCQQAKSFPFTFGPGTKVEIK
notes: IgG1
B2: Fab75 (Fab, V domains shown)
VH: B1 VH
VL: B1 VL
notes: also called mAb 75
B3: mAb 159 (antibody, V domains shown)
VH: EVQLVESGGGVVQPGRSLRLSCAASGFTFSSYGMHWVRQAPGKGLEWVALISYDGGNRYYADSVKGRFTISRDNSKNTLYLQMNRLRAEDTAMYYCAKDRDDGWDWYYFMDVWGKGTTVTVSS
VL: DIQLTQSPGTLSLSPGERATLSCRASQSISGNYLAWYQHKPGQAPRLLIYGASTRATGIPDRFSGSGSGTDFTLTISRLEPEDFAVYYCQQYGSSYTFGQGTKVEIK
B4: mAb 316, de-glycosylated (antibody, V domains shown)
VH: not shown
VL: QAVLTQPPSASGSPGQSVTISCTGTSSDVGGYNYVSWYQQHPGKAPKLMIYEVSKRPSGVPDRFSGSKSGNTASLTVSGLQAEDEADYYCSSYAGSNHWVFGGGTKLTVL
B5: mAb 316 (antibody, V domains shown)
VH: not shown
VL: B4 VL
B6: mAb 384 (IgG) (antibody, V domains shown)
VH: EVQLVESGGGLVKPGESLRLSCAASGFTFSDYYMTWIRQAPGKGLEWVSYIRSSGHTIYYADSVKGRFTISRDNAKNSLYLQMNSLRVEDTAVYYCARGGVLRFLEWPLNAFDIWGQGTMVTVSS
VL: DIQLTQSPSSLSASVGDRVTITCRASQGISNYLAWYQQKPGKVPKLLIYAASTLQSGVPSRFSGSGSGTDFTLTISSLQPEDVATYYCQKYNNALGTFGQGTKVEIK
notes: IgG1

What was measured:
[1] = molecular target: His-tagged SARS-CoV-2 RBD (Severe acute respiratory syndrome …, UniProt P0DTC2); experiment: BLI; competition assay, Octet RED96e, His-tagged RBD on Anti-HIS (HIS2) biosensors, saturating antibody 15 ug/ml then competing IgG 5 ug/ml; 10 mM HEPES pH 7.4, 150 mM NaCl; conditions: both partners purified
[2] = molecular target: His-tagged RBD for structural analysis (SARS-CoV-2 Wuhan-Hu-1 (MN908947), UniProt P0DTC2, treated with endoglycosidase H1; 'glycosylated RBD' was used for the complex with Fab S309 and Fab384); experiment: crystal structure; conditions: both partners purified
[3] = molecular target: SARS-CoV-2 spike on intact virus (SARS-CoV-2/human/AUS/VIC01/2020) (SARS-CoV-2, isolate …, strain); experiment: cell-based or functional assay
[4] = molecular target: His-tagged SARS-CoV-2 RBD (SARS-CoV-2 Wuhan-Hu-1 (MN908947), UniProt P0DTC2); experiment: BLI; Octet RED 96e; anti-RBD IgGs immobilised on AR2G biosensors, RBD as the analyte in serial dilutions; 1:1 global fitting model; conditions: both partners purified

Row | Binder | binding result [1] | Kd [4] | also measured
1 | B1 | binds | – | –
2 | B2 | – | – | binding result [2]: binds
3 | B3 | – | – | FRNT, neutralisation of authentic SARS-CoV-2 on Vero cells, IC50 [3]: 5 ng/mL
4 | B4 | – | 1 nM | –
5 | B5 | – | 2 nM | –
6 | B6 | binds | – | –
